Test results: patent publication US20240279618A1, “RECEPTOR TYROSINE KINASE AGONIST, COMPOSITION FOR CELL CULTURE MEDIUM, AND […] MAINTENANCE COMPOSITION” (SEKISUI CHEMICAL CO., LTD., priority 2021, published 2024)
One block for each molecule: values may come before it.

Columns and labels:
[1] = system: NIH3T3 (mouse fibroblast cell line); assay: Cell growth assay with NIH3T3 (Cell Titer Glo luminescence); format: cell-based
Description: As a cell for measuring a cell growth activity, NIH3T3 (mouse fibroblast cell line) was obtained from ECACC through a domestic agent. The cell which was subjected to extended culture according to an ordinary method, and then freeze-preserved at −80° C. using CellBankeR1 plus (manufactured by Xenoac Co., Ltd.) was used. […]
The cell growth assay for FGF2 was performed according to the following procedure. […] The plate was further left to stand for 8 minutes, and then the luminescence in each well was measured with a Synergy HTX plate reader (manufactured by BioTek) with a sensitivity set (Gain) of 200 and a measurement time of 1 s/well.
The measurement was performed at three points at each concentration of the test substance, for the measurement at a single concentration, 100 ng/ml of FGF2 was used as a positive control and a condition of no addition was used as a negative control, and the VHH monomer was prepared with uniform 100-fold dilution, and measured. […] EC50 measurement data were obtained according to an ordinary method using a control software attached to a plate reader. The EC50 value was calculated by applying the 4-parameter fit.
Each stock of the VHH monomer (Clone #1: 2.65 mg/mL; Clone #2: 0.82 mg/mL-PBS) was diluted 100-fold to check the presence or absence of the cell growth activity. […] The vertical axis in FIG. 15 indicates a relative luminescence amount. […]

[2] = system: FGFR3-Fc; assay: SPR affinity of VHH (monomer) for FGFR3-Fc; format: binding, human; details: same manner as Example 5
Description: (§1) The binding activity of VHH Clone #1 or VHH Clone #2 immobilized on Series S Sensor Chip CAP (manufactured by Cytiva) with respect to FGFR1-Fc was measured using Biacore (registered trademark) T200 (manufactured by Cytiva). Measurement was performed by CAP Single-cycle Kinetics. The temperature was set to 25° C. As a running buffer, 10 mM HEPES (pH 7.4) (Cytiva) including HBS-EP+(150 mM NaCl, 0.5 mM EDTA, and 0.05% surfactant P20) was used. The measurement order for each run is as follows.
(§2) 2) Measurement of binding activity: The flow rate was set to 30 μL/mL, and VHH Clone #1 or VHH Clone #2 each diluted to 1.85 nM, 5.56 nM, 16.67 nM, or 50 nM, using a running buffer, was allowed to have an association time set to 120 seconds for binding and a dissociation time set to 600 seconds for interaction.
(§3) 3) Regeneration of sensor chip surface: The flow rate was set to 10 μL/mL, a solution in which Reaneration stock 1 and Regeneration stock 2 (manufactured by Cytiva) were mixed at the ratio of 3:1 was added thereto for 120 seconds to extract the immobilized VHH. Next, analysis was performed with a 1:1 binding model using Biacore T200 Evaluation (software version 2.0, manufactured by Cytiva), and the binding activity was calculated.
(§4) The binding activity of VHH Clone #1 to FGFR2-Fc, FGFR3-Fc, or FGFR4-Fc was measured in the same manner as in Example 5.

[3] = molecular target: T1, FGFR4-Fc (Homo sapiens, UniProt P22455); assay: SPR affinity of VHH (monomer) for FGFR4-Fc; format: binding; details: same manner as Example 5
T1 construct: Fc
T1 sequence (P22455 22-369 limits assumed): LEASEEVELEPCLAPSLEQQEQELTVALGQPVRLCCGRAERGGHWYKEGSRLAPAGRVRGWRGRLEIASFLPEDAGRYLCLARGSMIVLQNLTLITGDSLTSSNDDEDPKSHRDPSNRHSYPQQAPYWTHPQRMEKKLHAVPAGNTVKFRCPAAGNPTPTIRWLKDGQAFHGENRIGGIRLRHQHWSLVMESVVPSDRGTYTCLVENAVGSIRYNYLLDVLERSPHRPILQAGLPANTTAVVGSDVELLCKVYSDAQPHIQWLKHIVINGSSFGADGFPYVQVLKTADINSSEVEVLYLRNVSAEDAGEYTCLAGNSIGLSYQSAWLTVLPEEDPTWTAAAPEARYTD
Description: as §1, §2, §3, §4

B1: VHH Clone #2: alpaca-derived VHH single-domain antibody (monomer) binding FGFR1, amino acid sequence SEQ ID NO: 18 (protein)
VHH: QVQLVESGGGLVQAGGSLRLSCAVPGSIFRFNTMGWYRQPPGKQRELVAQMSRGGITKYGDSVKGRFTITRDNAKNTVHLQMNSLKPEDTAVYYCAGSYYSGSYYYPSPQGFSVWGQGTQVTVSP
modifications: VHH_Clone_#2
- cell growth activity (relative luminescence amount, RLU) ([1]; NIH3T3, serum-free, 2 days, 4-fold dilution series, compared with FGF2): relative luminescence amount was low even at a high concentration
- cell growth activity of VHH monomer (relative luminescence amount) ([1]; NIH3T3, stock diluted 100-fold (Clone #2: 8.20 μg/mL)): significantly exhibited a cell growth activity

- kd [2]: 0.235 s⁻¹
- ka [3]: 2.37e+06 M⁻¹ s⁻¹
- kd [3]: 0.0527 s⁻¹
B2: VHH Clone #1: alpaca-derived VHH single-domain antibody (monomer) binding FGFR1, amino acid sequence SEQ ID NO: 17 (protein)
VHH: QLQLVESGGGSVQAGGSLRLSCAASRSLSRFNVWTWYRQAPVKQRELVASITKSGDTNYAESVKGRFIISRDDDKNTVYLQMNNLKSEDTGIYYCAGSYYSGSYLYPSPGGFSVWGQGTQVTVSS
modifications: VHH_Clone_#1
- ka [2]: 232000 M⁻¹ s⁻¹
